This passage reports stoichiometry N results from publication PMC10501185.

The target of this experiment is Lymphocytic choriomeningitis virus RING finger Z matrix protein (Lymphocytic choriomeningitis virus (LCMV)) (UniProt P18541). The experiment can be described thus: cryo-EM structure.
Sequence of UniProt P18541 (P18541 whole entry): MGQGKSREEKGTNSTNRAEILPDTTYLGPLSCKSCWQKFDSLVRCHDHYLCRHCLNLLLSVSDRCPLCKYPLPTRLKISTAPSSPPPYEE

Substance “Lymphocytic choriomeningitis virus large polymerase (L), P14240 1-2210” had a stoichiometry N of 1.

The stoichiometry N is the number of molecules, sites or subunits per partner or assembly.
